The assay concerns the target T1, ALFA-tagged target immobilised for SPR with NbALFA (TST-NEDD8-ALFA or GFP-ALFA) (synthetic (designed ALFA-tag)).
T1 chain: SRLEEELRRRLTE
The experiment in a line: SPR. (In general: Surface plasmon resonance follows binding to a sensor surface in real time, without labels.)

B1: NbALFA (non-tagged) (VHH)
VHH: EVQLQESGGGLVQPGGSLRLSCTASGVTISALNAMAMGWYRQAPGERRVMVAAVSERGNAMYRESVQGRFTVTRDFTNKMVSLQMDNLKPEDTAVYYCHVLEDRVDSFHDYWGQGTQVTVSS
Turning to B1, the Kd (as a rule, the concentration at which binding is half-saturated) is about 0.026 nM.

(Values after publication doi:10.1101/640771 (bioRxiv, 2019).)
